B1: Nanobody 4D3 (VHH, from a related filing)
VHH: EVQLVKSGGGLVQPGGSLRLSCAASGFTFSHYQMSWVRQAPGKDVEWVSSISMLGGGTTYADSVKGRFTISRDNAKSTLVLQMNNLKVEDTAVYYCARGFSGNYYRADLGQGTQVTVSS
B2: Nanobody 4A2 (VHH, from a related filing)
VHH: EVQLVESGGGLVQAGGSLRLSCAASGLSFSSYAMGWFRQAPGKEREFVAAIRRREGNSYYADSVKGRFTISRDSAKNTVYLQMNSLKPEDTALYSCAATAPHYSGSFAYAGGYDYWGQGTQVTVSS

Experiments:
[1] = target: human serum albumin (human) (UniProt P02768); test: SPR (Biacore), ratio of off rates at pH 7 and pH 5
[2] = target: human serum albumin (human) (UniProt P02768); test: SPR (Biacore T100), serum albumin immobilized on CM5 chip, running buffer pH 5, 25 C
[3] = target: human serum albumin (human) (UniProt P02768); test: SPR (Biacore T100), serum albumin immobilized on CM5 chip, running buffer pH 7, 25 C

Binder	Ratio pH 7/pH 5 [1]	koff [2] [s⁻¹]	koff [3] [s⁻¹]
B1	2.42	0.0137	0.00565
B2	3.54	0.0227	0.00642

Source: patent US20090074770A1
